# In article PMC5695104:
# Molecular target: recombinant H03-IPSE (Schistosoma haematobium)
# Test: SDS-PAGE under non-reducing and reducing conditions; 4-20% gradient gel, Coomassie stain and anti-His Western blot; protein purified by IMAC from serum-free culture supernatant; run non-reduced (NR) or reduced (R)
substance,measurement,value
recombinant H03-IPSE (natural protein),stoichiometry N,2
